The target of experiment [1] is T1, cynomolgus monkey CD96 on cynomolgus monkey PBMCs (cynomolgus monkey, UniProt A0A2K5TWV6 22-569).
T1 construct: whole, on cells
T1 sequence: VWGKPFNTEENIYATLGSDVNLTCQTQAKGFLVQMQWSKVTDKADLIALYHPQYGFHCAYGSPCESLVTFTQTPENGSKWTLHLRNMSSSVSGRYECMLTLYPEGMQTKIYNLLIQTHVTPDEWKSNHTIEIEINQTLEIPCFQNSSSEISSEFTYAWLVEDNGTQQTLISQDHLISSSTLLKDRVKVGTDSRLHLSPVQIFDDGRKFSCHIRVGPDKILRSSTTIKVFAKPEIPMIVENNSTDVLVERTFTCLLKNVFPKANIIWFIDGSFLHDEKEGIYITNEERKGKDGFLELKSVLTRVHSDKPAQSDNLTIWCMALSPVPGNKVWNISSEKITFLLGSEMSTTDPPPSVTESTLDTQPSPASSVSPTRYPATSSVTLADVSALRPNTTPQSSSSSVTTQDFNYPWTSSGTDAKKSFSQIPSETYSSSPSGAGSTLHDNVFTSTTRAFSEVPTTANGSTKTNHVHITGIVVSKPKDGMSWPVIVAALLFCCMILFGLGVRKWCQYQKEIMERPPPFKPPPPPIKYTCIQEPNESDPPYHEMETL
Kind of experiment: FACS, % positive curve. The method, then: (§1) The ability of the anti-CD96 antibodies to bind primary immune cells from human and cynomolgus monkey with lower level of receptor expression was measured. Human PBMCs (StemCell Technologies, catalog #70025) and cynomolgus monkey PBMCs (Primate Biologicals, catalog #CM-MC) were incubated with human TruStain FcX (Biolegend, catalog #422302) for 10 minutes at 4° C., followed by incubation with an anti-CD96 antibody for 20 minutes at 4° C. Cells were washed and the anti-CD96 antibody binding was detected by incubation with anti-mouse IgG-PE (Thermo Fisher, catalog #M30204) or anti-human IgG (Fab) 2-PE (Thermo Fisher, catalog #H10104) for 20 minutes at 4° C. Cells were washed, and immune subtypes were labeled with anti-CD3 (BD, catalog #557705), anti-CD4 (Biolegend, catalog #317424) and anti-CD8 (BD, catalog #557760) for 20 minutes at 4° C. Cell binding was analyzed by flow cytometry with a CytoFLEX (Beckman Coulter). Binding curves were calculated as a percentage of cells positive for bound antibody in the cell type of interest.
For orientation: In flow cytometry, cells or beads pass a laser one at a time.

In experiment [2] the target is T1, cynomolgus monkey CD96 on cynomolgus …. Briefly: FACS, Ab 0.64 nM. How it is done:
as §1

Results on one molecule are retold here after patent US12365732 (23ANDME, dated 2025).

B1: h10G1 IgG (humanized 10G1) (antibody, V domains shown)
VH: EIQLVQSGSELKKPGASVKVSCKASGYPFTTYGMSWVRQAPGQGLEWMGWINTDSGVPTYADDFKGRFVFSLDTSVSTAYLQISSLKAEDTAVYFCARNIYYGWGNFDYWGQGTLVTVSS
VL: EIVMTQSPDFQSVTPKEKVTITCRASQDIYRNLHWYQQKPDQTPKLLIKHASDSISGIPSRFSGSGSGTDFTLTINSLEAEDAAAYYCLQGYSMPYTFGGGTKVEIKG
notes: human IgG1 N297G
One may read the EC50 as the concentration needed to bring the measured effect to its halfway point. Turning to B1, the EC50 in experiment [1] stood at 0.12 nM. In experiment [2], the “% positive” value was determined as 51.2%.
